Measurements reported in the supplement of paper PMC9942255.

Tested on: Bacillus subtilis DB104 (SP-AmyQ fusion secretion)
Assay: AmyQ secretion efficiency, weighted average sort bin (1 = best secretion, 10 = worst) (bin number (weighted average, 1-10)); higher = lower secretion efficiency
How it was run: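 Occupied alginate beads were sorted by large-particle flow cytometry into 10 equally populated bins according to green/red fluorescence ratio. Each bead (~65 nL) held fluorescein-starch and about 0.3 cells of a B. subtilis DB104 library expressing mature AmyQ fused to designed signal peptides from the amyE locus, and beads were grown about 13 h at room temperature and stained with nile red before sorting. Bin amplicons were Illumina-sequenced, and the secretion score is the read-frequency-weighted average bin number, normalised to beads per bin, excluding low-abundance sequences.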

Sequence | AmyQ secretion efficiency
MHLIRAAGAVCLAVVLIAGCRFNEDQAEGENT | 5.78
MSGSTLIILALFVLSLGLLSFMVTPVSAASK | 4.39
MKKGIIRFLLVSFVLFFALRRKKKRVQAAPA | 5.81
MLKKKWMVGLLAGCLAAGGFSYNLFATEN | 5.92
MKKRFFGPIILAFILFAGAIVIPS | 5.76
MTTGLLASLVLCLSLSPLVSTNEVFAATT | 4.99
MLTKRLLTIYIMLLGLIAWFPGALQAEEK | 2.66
MKSKVKIAGVLTVAAAAMTAKMYATAKGN | 7.17
MKKRLIQVMIMFTLLLRRKRRRRADAADS | 8.45
MKKAAAVLLSLGLVFGFSYGAGHVMEAKTK | 5.11
MKKTIMSFVAVAALSTTAFGAHASAKKR | 2.68
MKRMIVRMTKRKRRRCLAFSSFSASARAASE | 8.6
MKRLLVSLRVWMVFLMNWVTPDRKTEAAAVY | 6.9
MRKKRVITCVMAASLTLGSLLAAAIASAKED | 5.2
MRGKSAVLLSLIMLIAGFLISFSFKK | 6.28
MLKKVRKRRKKLVGSTLGAFSFSSDASAKHV | 6.7
MLCVMMLLFSAIASFPVSAQAASR | 6.18
MKKAAAVLLSLGLVFGFSYGAGHVHEAKTK | 5.32
MRKTIFAFLTGLMMFGTITACSASPD | 5.81
MKLSVKIAGVLTVAAAAMTAKMYATQKGN | 7.51
MRHKIITFILAVVVIIIIGNMIGGGGGSEATSK | 5.87
MKRIRIPMTLALGAALTIAPLSFAFTASAEEN | 3.82
MKRIRIPMTLALGAALTIAPLSFNSAEEN | 7.4
MKRLLVSLRVWMVFLMNWVTPDRKTAAAAEE | 6.3
MKKKQVMLALTAAAGLGLTALGSAPAAKAAPL | 2.2
MKKLLAAGIIGLLTVSIASPSFEAEK | 6.63

Sequence | AmyQ secretion efficiency
MKLSVKIAGVLTVAAAAMTAKMYTTAKGN | 7.65
MPYLKRVLLLLVTGLFMSLFRKRRKRASAQTG | 6.94
MGLGKKLKKKKAASFMSLSISLPGVQAAEG | 7.92
MFNRLFRVCFLAALIMAFTLPNSVYLQKP | 6.77
MRKSLITLGLASIVIGTSSFLIPFTSKTASAETL | 2.2
MLKKKWMVGLLAGCLAAGGFSYNAFLTEN | 6.4
MKKTIMSFVAVAALSTTAFQPHASAKEI | 2.23
MRKVVGFLSVLGLAAVFPLTAQAEKA | 2.03
MKKTIMSQKQTAALSTTAFGAHASAKEI | 7.42
MMIKQCVICLSLLVFGTTTAHAEET | 2.61
MAIIIAIIAAVIVIAALITFIVIVIRNASPG | 6.93
MFMKHTISLLIIFLLASAVLAKPIEAHTV | 2.89
MLKKIALTLCPAIVGSLLFFTAPASMHVS | 4.09
MNSMTIWTIILGALLVCCIAVAYTLTKSQAGASSS | 6.92
MKNMSCKLVVSVTLFFSFLTIGPLGHAQNS | 2.46
MTFTKVVGFLSVLGLAAVFPLTAQAEKA | 3.02
MKVPKTMLLSTAAGLLLSLRRKKRKVSAHYV | 6.33
MSGSSFVLIVCIIFTSALFPTFSSVTAAQG | 1.04
MKLRKVLTGSVLSLGLLVSASPAFATRK | 2.53
MKLSVKIAGVLTVAAAAMTAKMYATLKGN | 7.31
MKKRFFGPIILAFILFAGAIDIPS | 6.03
MGMKKKLSLGVASAALGLALVGGGTWKAFN | 5.21
MKLKKRVSMFLVALTMCGGLFVTPFKAVKT | 6.39
MKMKSGMEQAVSVLLLLSRLPVQASFTSE | 7.78
MKNMSCKLVVSVTLFFSFLTIGPLVHAQNS | 1.05
MKKELLASLVLCLSLKRRKRTNRVFAATT | 7.57

Sequence | AmyQ secretion efficiency
MFNRLFRMSSFIVCFLAALIMAFTLPNSVYAQKP | 1.95
MKKWIYVVLVLSIAGIGGFSVHIASS | 6.47
MKRITINITIITMFIAAAVISLTGTAEAAEK | 2.69
MPYLKRVLLLLVTGLFMSLFAVTATASAQTK | 1.71
MKKQIITATTAVVLGSTLFAEDDDDEASAQSI | 3.86
MLCVMMLLFSAIAAFTVTAQAKDQ | 6.83
MKRLLSTLLIGIMLLTFAPSAFCKQD | 2.6
MLKKKWMVGLLAGCLAAGGFSYNAFAKRK | 5.47
MKKVMLATALFLGLTPAGANIADL | 6.67
MRPVFPLILSAVLFLSCFFGARQTEASDSKR | 2.12
MGRIKTKITILLVLLLLLAGTYMYIN | 6.42
MRSYIKVLTMCFLGLILFVPTQTALADNS | 2.3
MRMLWRSLALCGLALTLALPCAQAAEP | 2.19
MKKLLSAASLAFFAMSGSAQAAAY | 2.96
MRRGKKLSVAVAASFMSLSISLPGVQAAEG | 1.3
MFKKHTISLLIIFLLASAVLAKPIEEHTV | 5.81
MRYFSKAVFVIMISFLIATVNVNTAHAAID | 5.65
MKLKSKLLLSCLALSTVFVATTILNAPTH | 6.08
MKKTIMSFVAVAALSTTAFGAHASAATK | 3.57
MKKTIMSFVAVAALSTTAFGAHASTKEI | 5.13
MFKKQSRATSALTFSLSLVLPLDGHAKAQEV | 6.63
MKKVLMAFIICLSLILSVLAAPPSGAKEESV | 3.2
MMGRKVLTGSVLSLGLLVSASPAFATSP | 2.07
MKRKKLLVSLRVWMVFLMNWVTPDRKTAAAAVY | 7.43
MKRKLLSSLAISALSLGLLVSAPTASFAASS | 1.56
MKKVLMAFIICLSLILSVLAAPPSGAKIESV | 5.54

Sequence | AmyQ secretion efficiency
MKSKWMSGLLLVAVGFSFTQVMVHAGDE | 5.94
MKRITINIITMFIAAAVISLTGTAEAAPK | 2.12
MKKRLIAPMLLSAASLAFFAMSGSYQAAAY | 6.45
MKLKKRVSMFRKKKRKCGGLFVTPAKAVKT | 7.44
MGLGKKLSVAVAASFPGVQAAEG | 7.32
MKLRKMVLTGSVLSLGLLVSASPAFATSP | 1.54
MAIIIAIIAAVIVIAALITFAVRNASPG | 6.55
MKKWMITIAMLILAGIALFVFISPFKSHKT | 6.23
MKRIRIPMTLALGAALTIAPLSFASAKKR | 3.26
MKKRYMAFIICLSLILSVLAAPPSGAKAESV | 2
MTTKFTALAVFLKEHTQASLL | 6.23
MKKAFILSAAAAVGLFTFKKKRRRASAKEL | 7.21
MKKCLLFLTTIALILSLSTTAFAKNT | 1.16
MKKSQYFIVFICFFVLFSVHPIAAARADS | 3.7
MSFVMNIIIALVTILMLSVTSLFALQPSAKAAEH | 2.71
MKRITINIITMFIAAAVIVFSLTGTAEAAEK | 2.39
MKWMCSICCAAVLLAGGAAQGEAV | 3.2
MKKKLAAGLTASAIVGTTLVVTPAETATI | 5.92
MKKWLIIAVSLAIAIVLFDDTDGEAKAAGM | 2.55
MKSKGSIMACLILFSFTITTFINTETISLFSN | 7.29
MAIIIAIIAAVIVIAALITFNVGGSPVVSTSTARNASPG | 3.35
MKKGIIRFLLVSFVLFFALSTGITGVQAARK | 2.85
MKKWIYVVLVLSIAGIGGFSMHAASS | 5.22
MSLMIVFMTLPLLIVCLAFSSFSASARAASE | 4.54
MFKFKKNFLVGLSAALMSISLFSATASAADD | 3.08
MLKKKWMVGLLAGCLAAGGFSYNAFDTEN | 6.19

Sequence | AmyQ secretion efficiency
MKIRKILLSSALSFGMLISAVPALGAGT | 3.88
MKKVLMAFIICLSLILSVLAAPPSGAKVESV | 4.98
MKKAFLVFLSVVLVTTVFLVKQQESVAQAADD | 4.45
MKKKQVMLALTAAAGLGLTALHSAPAAKHAPL | 4.9
MKKIVSILFMFGGFSQFQPSTVFAADK | 4.29
MPYLKRVLLLLVTGLFMSLFAVTATVSAQTG | 1.43
MKSKGSIMACLILFSFTITRKKRKKTISAFSN | 7.38
MKKWMAGLFLAAAVLLCLMVPQQMQGASS | 5.46
MSTTIIITATTAVVLGSTLFAGAASAQSI | 2.61
MPIFKKVMMCLAVTLVFGSMSFPTLTNSGGFKE | 6.15
MKKKLAAGLTASAIVGTTLVVTPAEYATI | 6.06
MKRLLVSLRVWMVFLMNWVTPKRKTAAAAVY | 5.43
MGMKKKLSLGVASAALGLALVGRRKRKKTWAAFN | 6.59
MTMLRKIIGWILLLCIIPLFAFTVIISGKEV | 5.66
MKLAKRVSALTPSTTLAITLKAKEL | 8.05
MTLGGSVSMFLVALTMCGGLFVTPAKAVKT | 3.81
MRSKKLWISLLFALTLIKKKAFSNMSAQAAGK | 8.69
MGLGKKLSVAVAASFMSLSISLPGVQWAEG | 3.19
MKLAKRVSALTPSTTLAIATVLATAKAKEL | 6.28
MKKRLIAPMLLSAASLAFFAMSGSSGAAGPSPAAQAAAY | 4.83
MRSYIKVLTMCFLGLILFVPTMLADNS | 3.1
MKVLLSALLLLLFAFEPSFASGKKL | 5.58
MKKAFLVFLSVVLVTTVFLRKKRRKVAQAKQL | 6.27
MGLGKKLSVAVAASFMSLSISLPGVQAAPR | 2.88
